Laboratory results reported in patent US20260234261A1.
Where two headings read alike, the source gives them in different places.

Tests used:
Assay in all cases: FACS binding
[1] = target: CHOS-hCCR8-hCTLA-4 cell (human) (UniProt P16410)
[2] = target: CHOS-hCCR8-hCTLA-4 cell (human) (UniProt P16410); remark: listed apart in the source
[3] = target: CHOS-hCCR8-hCTLA-4 cell (human) (UniProt P16410); remark: listed apart in the source

Chain of CHOS-hCCR8-hCTLA-4 cell (human) (P16410 36-223, chain 1 of 2): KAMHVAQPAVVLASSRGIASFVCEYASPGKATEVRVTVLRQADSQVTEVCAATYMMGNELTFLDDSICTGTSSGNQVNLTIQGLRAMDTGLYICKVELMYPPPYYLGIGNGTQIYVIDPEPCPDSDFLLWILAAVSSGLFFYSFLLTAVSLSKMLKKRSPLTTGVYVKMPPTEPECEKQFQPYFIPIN
Chain of CHOS-hCCR8-hCTLA-4 cell (human) (P51685 whole entry, chain 2 of 2, further chain): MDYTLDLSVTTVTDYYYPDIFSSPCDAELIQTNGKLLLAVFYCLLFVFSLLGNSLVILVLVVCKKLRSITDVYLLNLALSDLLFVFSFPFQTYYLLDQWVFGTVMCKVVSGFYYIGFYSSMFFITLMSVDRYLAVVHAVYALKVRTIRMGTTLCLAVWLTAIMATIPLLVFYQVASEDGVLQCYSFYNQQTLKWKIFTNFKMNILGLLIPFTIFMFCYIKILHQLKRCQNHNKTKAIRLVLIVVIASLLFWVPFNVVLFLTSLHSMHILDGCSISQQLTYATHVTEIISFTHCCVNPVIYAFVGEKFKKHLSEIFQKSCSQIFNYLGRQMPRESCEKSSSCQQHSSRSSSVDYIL

- EC50 [1]: 0.75 nM
- EC50 [2]: 0.722 nM
- EC50 [3]: 0.682 nM
Substance: Yervoy
